Measurements: patent US8173397B2, “Folded recombinant catalytic fragments of multidomain serine proteases, preparation and uses thereof” (TargetEx Kft., priority 2002, dated 2012)

Columns and labels:
Format in all cases: biochemical
[1] = target: T1, live C3 (Homo sapiens, UniProt P01024); assay: Cleavage of live C3 by MASP fragments, SDS-PAGE densitometry; details: from kcat/KM values
T1 construct: was isolated from fresh human serum; from tissue; host or cells: fresh human serum
Procedure: C2, C3, C3(NH3), C4 cleavage—Serial dilutions of MASP-1 and MASP-2 fragments ranging between concentrations of 1 μM and 10 pM were incubated at 37° C. in 20 mM HEPES, 140 mM NaCl, pH 7.4 with C2, C3, C3(NH3) or C4 at typical concentrations of 0.5-1 μM. The cleavage was followed by SDS-PAGE under reducing conditions. Desirable concentrations of the MASP fragments for further detailed kinetic analysis were chosen to be where half of the protein substrates were hydrolyzed during the first 20 minutes of incubation. The protein substrates C2, C3, C3(NH3) or C4 were then incubated with the selected concentrations of the MASP fragments at 37° C. in 20 mM HEPES, 140 mM NaCl, pH 7.4. Typically 11-13 samples were taken at varying time periods but always within 50 minutes from the beginning of the reaction. Cleavages rates were quantified by measuring the diminution of the cleaved chain visualized by Coomassie stained SDS-PAGs using a GEL DOC 1000 instrument and Molecular Analyst Software for densitometric calculations (Bio-Rad, Hercules, Calif., USA). The reactions were assumed to be of the Michaelis-Menten type. In the case of C3 and C3(NH3) cleavage a further reasonable assumption of KM>>[substrate] was made. […]

[2] = target: T2, C1-inhibitor (Homo sapiens, UniProt P05155); assay: Rate of SDS stable complex formation of 125I-labelled MASP fragments with C1-inhibitor
T2 construct: Purification of C1-inh and Alpha-2-Macroglobulin; from tissue
T2 sequence (P05155 23-500): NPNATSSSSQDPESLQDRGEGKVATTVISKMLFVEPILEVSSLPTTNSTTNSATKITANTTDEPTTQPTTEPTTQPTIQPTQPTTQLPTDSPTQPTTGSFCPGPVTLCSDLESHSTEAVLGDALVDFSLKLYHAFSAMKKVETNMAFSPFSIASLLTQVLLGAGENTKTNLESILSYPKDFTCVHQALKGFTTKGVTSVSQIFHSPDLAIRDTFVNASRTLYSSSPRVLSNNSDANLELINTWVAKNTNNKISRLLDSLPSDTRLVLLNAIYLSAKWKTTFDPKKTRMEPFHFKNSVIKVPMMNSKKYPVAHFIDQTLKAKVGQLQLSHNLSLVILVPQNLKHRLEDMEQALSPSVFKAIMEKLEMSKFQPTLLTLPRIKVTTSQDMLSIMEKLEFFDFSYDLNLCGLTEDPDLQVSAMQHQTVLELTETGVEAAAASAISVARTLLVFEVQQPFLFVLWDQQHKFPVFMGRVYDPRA
Procedure: To assess the rate of SDS stable complex formation between the MASP-1 and MASP-2 CCP1-CCP2-SP fragments and C1-inhibitor, the ^125I-labelled MASP fragments at concentrations ranging between 30-100 nM were incubated with 100-350 nM C1-inhibitor at 37° C. in 20 mM HEPES, 140 mM NaCl, pH 7.4 for 40 minutes. Typically 11-13 samples were taken at varying time periods. The reactions were stopped by reducing sample buffer containing 0.125 M Tris, 4.8% SDS, 8 M urea 20% glycerol, 720 mM mercaptoethanol, 0.02% bromophenol blue, pH6.8. The samples were further incubated at 37° C. for 30 minutes and run on reducing SDS-PAGE. Cleavages rates were visualized by means of autoradiography and the diminution of the reacted MASP chain was quantified using a GEL DOC 1000 instrument and Molecular Analyst Software for densitometric calculations (Bio-Rad, Hercules, Calif., USA). The kinetic constants were calculated assuming irreversible inhibition proceeded by reversible enzyme-inhibitor complex formation. Using steady-state approximation and neglecting the starting enzyme concentration compared to the starting inhibitor concentration ([I0]>>[E0]) the data was regressed on the following equation using non-linear regression methods: [E]=[E0]exp(−kobst); kobs=k2[I0]/(Ki+[I0]), where kobs is the observed pseudo-first order rate of reaction, k2 is the rate of irreversible enzyme-inhibitor complex formation and Ki is the inhibitory constant.

[3] = tested on: P1 Arg oligopeptide; assay: Competing oligopeptide substrate library; details: same conditions
Procedure: The specificities of the MASP-1 and MASP-2 CCP1-CCP2-SP fragments were tested on a competing oligopeptide library applying the method described before (Antal, 2001).
To further investigate the range of substrate specificity and relative specific activities of MASP-1 and MASP-2 we applied a competing oligopeptide substrate library. (Antal, 2001). This library contains a mixture of seven oligopeptides (each 13 amino acids in length) with different cleavage sites (P1) for both trypsin and chymotrypsin-like enzymes (His-Ala-Ala-Pro-Xxx-Ser-Ala-Asp-Ile-Gln-Ile-Asp-Ile, SEQ ID NO:18, where Xxx could be Lys, Arg, Tyr, Leu, Phe, Trp or Pro). The individual peptide substrates compete for the protease under investigation, in our cases for either the MASP-1 CCP1-CCP2-SP or the MASP-2 CCP1-CCP2-SP fragment. […] The MASP-1 catalytic fragment (CCP1-CCP2-SP) exerted a substantially larger activity on the Arg oligopeptide substrate than the MASP-2 fragment (FIG. 7). […] MASP-2 also preferred the Arg substrate to the Lys one, but the degree of preference was much less than that of MASP-1. A very similar specificity profile was obtained for trypsin in this oligopeptide library system.

T1 sequence (P01024 672-1663 limits assumed): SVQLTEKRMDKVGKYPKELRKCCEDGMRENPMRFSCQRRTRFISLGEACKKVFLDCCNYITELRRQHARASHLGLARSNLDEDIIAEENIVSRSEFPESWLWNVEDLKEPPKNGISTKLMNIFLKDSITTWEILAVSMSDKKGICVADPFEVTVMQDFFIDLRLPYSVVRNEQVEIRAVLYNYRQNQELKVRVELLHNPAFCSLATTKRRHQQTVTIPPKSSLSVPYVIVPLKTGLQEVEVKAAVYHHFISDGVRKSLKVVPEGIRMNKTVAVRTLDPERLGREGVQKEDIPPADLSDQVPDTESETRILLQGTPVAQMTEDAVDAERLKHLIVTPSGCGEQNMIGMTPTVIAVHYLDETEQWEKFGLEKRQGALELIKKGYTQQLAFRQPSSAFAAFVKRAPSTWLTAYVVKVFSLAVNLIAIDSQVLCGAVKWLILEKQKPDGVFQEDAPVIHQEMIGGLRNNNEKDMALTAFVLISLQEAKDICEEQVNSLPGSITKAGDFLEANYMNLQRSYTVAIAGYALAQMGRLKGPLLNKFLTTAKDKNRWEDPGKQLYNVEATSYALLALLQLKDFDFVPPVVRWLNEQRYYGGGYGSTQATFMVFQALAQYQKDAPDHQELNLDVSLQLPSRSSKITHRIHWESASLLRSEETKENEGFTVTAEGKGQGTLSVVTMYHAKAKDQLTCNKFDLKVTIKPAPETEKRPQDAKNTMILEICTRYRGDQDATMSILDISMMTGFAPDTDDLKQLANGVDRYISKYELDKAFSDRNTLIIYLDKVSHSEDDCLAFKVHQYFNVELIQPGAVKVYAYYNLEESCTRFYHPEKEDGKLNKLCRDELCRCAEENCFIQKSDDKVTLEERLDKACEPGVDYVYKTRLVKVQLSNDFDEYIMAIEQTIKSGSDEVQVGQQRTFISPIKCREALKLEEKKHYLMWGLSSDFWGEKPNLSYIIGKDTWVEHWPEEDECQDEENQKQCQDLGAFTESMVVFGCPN
T1 sequence (P01024 23-667 partner limits assumed): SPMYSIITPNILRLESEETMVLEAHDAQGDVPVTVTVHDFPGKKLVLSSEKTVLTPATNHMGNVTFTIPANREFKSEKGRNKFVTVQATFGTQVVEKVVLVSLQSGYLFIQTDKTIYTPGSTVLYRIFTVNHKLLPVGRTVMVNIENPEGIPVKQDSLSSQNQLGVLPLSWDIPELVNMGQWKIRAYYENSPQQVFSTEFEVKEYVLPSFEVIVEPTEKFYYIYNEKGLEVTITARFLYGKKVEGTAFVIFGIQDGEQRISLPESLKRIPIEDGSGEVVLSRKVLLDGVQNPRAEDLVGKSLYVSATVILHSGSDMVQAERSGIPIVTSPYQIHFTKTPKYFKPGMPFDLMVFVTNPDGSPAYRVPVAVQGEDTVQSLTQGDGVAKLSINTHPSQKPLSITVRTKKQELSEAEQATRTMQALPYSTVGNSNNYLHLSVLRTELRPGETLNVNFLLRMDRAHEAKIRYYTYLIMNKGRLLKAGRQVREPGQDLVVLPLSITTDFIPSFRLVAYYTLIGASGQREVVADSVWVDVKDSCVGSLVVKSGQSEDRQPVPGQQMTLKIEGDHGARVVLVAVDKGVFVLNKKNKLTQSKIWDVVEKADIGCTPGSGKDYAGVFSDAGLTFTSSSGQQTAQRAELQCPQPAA

B1: MASP-1γB: E. coli-expressed, refolded human MASP-1 CCP1-CCP2-SP fragment, Gly298 to Asn699 with N-terminal Ala-Ser-Met-Thr tag (protein)
chain 1: ASMTGNECPELQPPVHGKIEPSQAKYFFKDQVLVSCDTGYKVLKDNVEMDTFQIECLKDGTWSNKIPTCKIVDCRAPGELEHGLITFSTRNNLTTYKSEIKYSCQEPYYKMLNNNTGIYTCSAQGVWMNKVLGRSLPTCLPVCGLPKFSRKLMAR
chain 2: IFNGRPAQKGTTPWIAMLSHLNGQPFCGGSLLGSSWIVTAAHCLHQSLDPEDPTLRDSDLLSPSDFKIILGKHWRLRSDENEQHLGVKHTTLHPQYDPNTFENDVALVELLESPVLNAFVMPICLPEGPQQEGAMVIVSGWGKQFLQRFPETLMEIEIPIVDHSTCQKAYAPLKKKVTRDMICAGEKEGGKDACAGDSGGPMVTLNRERGQWYLVGTVSWGDDCGKKDRYGVYSYIHHNKDWIQRVTGVRN
With B1 the “proteolytic action on 'live' C3 relative to 'dead' C3 (fold less)” value [1] was “about 20 fold”, the “kobs with C1-inhibitor, fold less than for the MASP-2 CCP1-CCP2-SP fragment” value [2] was 5 fold and the “kobs, pseudo-first order rate of reaction with C1-inh” value ([2]; [C1-inh] = 350 nM, 37° C., pH 7.4) was 0.0014 s⁻¹. The “efficiency of digestion of the P1 Arg peptide relative to the corresponding fragment of MASP-2” value [3] was 4-5 fold.
